Source: patent US20260152730A1

Legend:
[1] = target: domain 11 of the CI-M6P/IGF2R; test: competitive ELISA on domain 11 of CI-M6P/IGF2R; cold ligand 1-500 nM against 8 nM biotinylated IGF2
[2] = target: insulin receptor isoform-A (IR-A); test: competitive ELISA on IR-A; cold ligand 1-500 nM against 0.8 nM biotinylated insulin

Substance	IC50 [1]	IC50 [2]	times increased IC50 against Δ1-6.IGF2 peptide [1]	fold lower affinity than Δ1-6.IGF2 peptide [2]
IGF2 peptide carrying a mutation of AA 1-6 (Δ1-6.IGF2 peptide) (from UniProt P01344) (ligand)	0.00501 µM	0.00161 µM		
IDS.IGF2 (construct 2): IDS tagged C-terminally with aa 1, 8-67 of the mature human IGF2 (from UniProt P22304)	0.0617 µM	0.251 µM	12.3 times	150 fold
